These results are taken from IntAct's records for PubMed 15585574.

The experiment addresses wasl_mouse Wasl (UniProt Q91YD9).

wasl_mouse Wasl, sequence (Q91YD9 whole entry): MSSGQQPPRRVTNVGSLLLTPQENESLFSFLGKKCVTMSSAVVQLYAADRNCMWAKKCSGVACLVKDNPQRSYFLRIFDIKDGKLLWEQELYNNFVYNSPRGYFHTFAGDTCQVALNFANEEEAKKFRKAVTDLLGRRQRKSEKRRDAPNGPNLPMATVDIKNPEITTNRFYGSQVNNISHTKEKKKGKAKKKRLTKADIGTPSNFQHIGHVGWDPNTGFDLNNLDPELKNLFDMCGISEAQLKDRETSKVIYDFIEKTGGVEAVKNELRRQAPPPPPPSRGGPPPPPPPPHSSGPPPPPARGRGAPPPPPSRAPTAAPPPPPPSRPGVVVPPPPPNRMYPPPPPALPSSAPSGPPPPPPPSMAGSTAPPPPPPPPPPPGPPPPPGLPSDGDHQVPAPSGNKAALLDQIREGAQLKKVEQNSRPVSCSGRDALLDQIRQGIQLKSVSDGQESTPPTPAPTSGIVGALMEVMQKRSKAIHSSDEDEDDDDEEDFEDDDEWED
Src substrate cortactin (Mus musculus), Q60598 W525L, sequence (Q60598 whole entry W525L): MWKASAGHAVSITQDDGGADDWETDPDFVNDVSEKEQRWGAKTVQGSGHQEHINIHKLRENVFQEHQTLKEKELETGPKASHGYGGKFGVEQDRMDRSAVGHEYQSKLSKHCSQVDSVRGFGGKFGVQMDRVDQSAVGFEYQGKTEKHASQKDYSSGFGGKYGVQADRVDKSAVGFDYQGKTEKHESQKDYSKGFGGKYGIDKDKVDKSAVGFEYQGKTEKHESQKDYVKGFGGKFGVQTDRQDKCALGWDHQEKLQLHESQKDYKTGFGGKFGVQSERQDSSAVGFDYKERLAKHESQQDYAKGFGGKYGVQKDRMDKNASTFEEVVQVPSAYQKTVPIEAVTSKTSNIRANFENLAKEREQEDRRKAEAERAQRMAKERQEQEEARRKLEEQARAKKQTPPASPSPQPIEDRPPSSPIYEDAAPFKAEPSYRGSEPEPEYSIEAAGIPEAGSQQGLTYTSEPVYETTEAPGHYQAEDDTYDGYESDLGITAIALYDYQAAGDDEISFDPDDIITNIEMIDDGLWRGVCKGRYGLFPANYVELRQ

With “Src substrate cortactin (Mus musculus), Q60598 W525L”, the “effect of a mutation on the interaction” value was “disrupting interaction”.
